{"source": "IntAct's records for PubMed 29892012", "key": {"[1]": {"target": "nup62_human NUP62 (UniProt P37198)", "sequence (P37198 whole entry)": "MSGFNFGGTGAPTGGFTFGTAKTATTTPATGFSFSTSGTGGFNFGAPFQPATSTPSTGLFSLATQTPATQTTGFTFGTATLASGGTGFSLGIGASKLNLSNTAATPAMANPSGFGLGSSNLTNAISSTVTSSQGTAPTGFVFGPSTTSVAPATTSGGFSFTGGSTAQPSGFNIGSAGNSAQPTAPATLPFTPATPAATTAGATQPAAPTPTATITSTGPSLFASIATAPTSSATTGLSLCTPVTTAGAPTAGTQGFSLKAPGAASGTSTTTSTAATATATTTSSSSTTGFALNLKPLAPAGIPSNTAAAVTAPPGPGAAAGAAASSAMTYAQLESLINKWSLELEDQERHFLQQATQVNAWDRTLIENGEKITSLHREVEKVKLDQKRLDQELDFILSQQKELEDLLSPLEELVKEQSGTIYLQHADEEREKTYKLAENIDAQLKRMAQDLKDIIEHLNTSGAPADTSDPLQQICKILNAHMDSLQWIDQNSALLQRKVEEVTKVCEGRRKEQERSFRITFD"}, "[2]": {"target": "T1, cryaa_human CRYAA (UniProt P02489)", "T1 sequence": "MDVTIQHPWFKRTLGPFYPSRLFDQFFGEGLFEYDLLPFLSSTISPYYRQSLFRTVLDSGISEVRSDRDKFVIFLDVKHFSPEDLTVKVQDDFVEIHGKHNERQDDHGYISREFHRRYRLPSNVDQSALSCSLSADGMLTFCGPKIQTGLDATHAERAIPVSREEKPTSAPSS"}, "[3]": {"target": "T2, traf4_human TRAF4 (UniProt Q9BUZ4)", "T2 sequence": "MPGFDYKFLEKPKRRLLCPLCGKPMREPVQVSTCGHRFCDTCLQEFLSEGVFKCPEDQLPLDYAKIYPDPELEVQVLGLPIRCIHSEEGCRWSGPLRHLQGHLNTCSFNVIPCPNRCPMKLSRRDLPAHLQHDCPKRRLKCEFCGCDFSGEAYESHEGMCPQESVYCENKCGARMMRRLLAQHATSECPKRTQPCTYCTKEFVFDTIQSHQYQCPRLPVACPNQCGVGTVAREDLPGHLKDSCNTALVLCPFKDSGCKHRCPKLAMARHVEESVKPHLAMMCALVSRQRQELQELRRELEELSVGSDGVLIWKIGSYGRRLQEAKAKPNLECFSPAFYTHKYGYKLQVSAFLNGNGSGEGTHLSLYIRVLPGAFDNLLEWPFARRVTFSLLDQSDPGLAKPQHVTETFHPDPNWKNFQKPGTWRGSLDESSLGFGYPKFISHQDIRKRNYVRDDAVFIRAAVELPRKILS"}, "[4]": {"target": "T3, acy3_human ACY3 (UniProt Q96HD9)", "T3 sequence": "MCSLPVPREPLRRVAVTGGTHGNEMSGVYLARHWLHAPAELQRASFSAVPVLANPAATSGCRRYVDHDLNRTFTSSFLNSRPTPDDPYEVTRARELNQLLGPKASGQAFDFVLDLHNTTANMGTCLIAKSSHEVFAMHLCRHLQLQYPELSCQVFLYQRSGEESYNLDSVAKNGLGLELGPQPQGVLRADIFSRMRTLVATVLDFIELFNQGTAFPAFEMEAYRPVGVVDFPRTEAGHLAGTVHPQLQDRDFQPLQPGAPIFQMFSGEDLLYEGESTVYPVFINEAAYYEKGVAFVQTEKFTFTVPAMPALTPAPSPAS"}, "[5]": {"target": "dpyl2_human DPYSL2 (UniProt Q16555)"}, "[6]": {"target": "itf2_human TCF4 (UniProt P15884)", "sequence (P15884 whole entry)": "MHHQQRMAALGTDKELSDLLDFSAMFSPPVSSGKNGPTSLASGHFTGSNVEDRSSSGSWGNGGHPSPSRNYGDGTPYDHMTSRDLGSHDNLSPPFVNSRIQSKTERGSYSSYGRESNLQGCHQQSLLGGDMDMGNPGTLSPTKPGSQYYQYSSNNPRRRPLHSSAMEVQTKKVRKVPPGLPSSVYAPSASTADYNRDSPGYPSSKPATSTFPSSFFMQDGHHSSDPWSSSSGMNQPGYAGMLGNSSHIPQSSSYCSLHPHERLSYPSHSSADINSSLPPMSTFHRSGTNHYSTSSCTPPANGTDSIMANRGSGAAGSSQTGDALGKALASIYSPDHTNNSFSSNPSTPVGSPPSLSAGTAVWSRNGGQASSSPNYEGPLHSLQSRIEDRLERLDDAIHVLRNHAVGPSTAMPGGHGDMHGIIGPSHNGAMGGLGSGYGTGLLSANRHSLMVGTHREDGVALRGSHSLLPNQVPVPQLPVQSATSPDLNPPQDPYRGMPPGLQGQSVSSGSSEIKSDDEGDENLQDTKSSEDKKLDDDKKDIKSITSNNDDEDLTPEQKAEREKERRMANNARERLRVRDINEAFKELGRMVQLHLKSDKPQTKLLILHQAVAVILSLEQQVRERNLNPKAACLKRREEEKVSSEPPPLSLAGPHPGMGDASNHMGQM"}, "[7]": {"target": "reep6_human REEP6 (UniProt Q96HR9)", "sequence (Q96HR9 whole entry)": "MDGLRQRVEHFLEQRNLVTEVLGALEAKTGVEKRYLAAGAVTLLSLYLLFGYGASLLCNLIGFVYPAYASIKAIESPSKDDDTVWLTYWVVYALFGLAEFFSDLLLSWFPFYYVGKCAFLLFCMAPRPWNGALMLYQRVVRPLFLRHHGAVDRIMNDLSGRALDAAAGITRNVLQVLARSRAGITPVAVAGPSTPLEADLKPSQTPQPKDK"}, "[8]": {"target": "T4, trim1_human MID2 (UniProt Q9UJV3)", "T4 sequence": "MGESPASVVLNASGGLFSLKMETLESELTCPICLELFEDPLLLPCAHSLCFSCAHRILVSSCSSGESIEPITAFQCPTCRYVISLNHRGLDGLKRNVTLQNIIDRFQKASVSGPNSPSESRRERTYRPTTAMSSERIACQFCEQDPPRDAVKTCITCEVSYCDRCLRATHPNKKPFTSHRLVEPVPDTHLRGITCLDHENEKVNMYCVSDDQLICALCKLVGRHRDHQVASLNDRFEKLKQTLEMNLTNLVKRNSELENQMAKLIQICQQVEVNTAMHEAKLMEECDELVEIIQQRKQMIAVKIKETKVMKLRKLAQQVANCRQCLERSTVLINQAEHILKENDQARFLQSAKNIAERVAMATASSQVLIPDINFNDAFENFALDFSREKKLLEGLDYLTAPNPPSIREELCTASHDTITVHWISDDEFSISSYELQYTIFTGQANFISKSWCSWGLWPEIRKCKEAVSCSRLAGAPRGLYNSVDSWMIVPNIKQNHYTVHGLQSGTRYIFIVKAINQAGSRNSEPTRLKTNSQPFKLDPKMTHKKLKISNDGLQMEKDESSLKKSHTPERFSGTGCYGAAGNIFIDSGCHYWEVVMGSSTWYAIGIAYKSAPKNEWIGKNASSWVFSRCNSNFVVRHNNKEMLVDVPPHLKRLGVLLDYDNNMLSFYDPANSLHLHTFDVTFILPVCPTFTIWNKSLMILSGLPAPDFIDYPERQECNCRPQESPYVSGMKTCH"}, "[9]": {"target": "T5, dcor_human ODC1 (UniProt P11926)", "T5 sequence": "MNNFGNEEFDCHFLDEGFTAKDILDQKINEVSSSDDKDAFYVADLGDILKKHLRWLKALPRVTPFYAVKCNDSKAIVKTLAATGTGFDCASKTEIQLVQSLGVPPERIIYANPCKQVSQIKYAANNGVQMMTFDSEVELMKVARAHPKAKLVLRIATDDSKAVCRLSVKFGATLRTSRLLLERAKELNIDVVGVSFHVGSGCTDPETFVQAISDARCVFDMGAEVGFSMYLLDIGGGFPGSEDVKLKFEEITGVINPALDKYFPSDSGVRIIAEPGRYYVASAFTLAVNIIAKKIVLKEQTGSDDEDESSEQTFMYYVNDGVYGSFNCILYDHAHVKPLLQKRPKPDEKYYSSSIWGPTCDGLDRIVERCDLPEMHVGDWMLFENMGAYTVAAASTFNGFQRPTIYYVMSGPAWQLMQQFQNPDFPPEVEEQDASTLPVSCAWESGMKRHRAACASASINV"}, "[10]": {"target": "T6, prdx3_human PRDX3 (UniProt P30048)", "T6 sequence": "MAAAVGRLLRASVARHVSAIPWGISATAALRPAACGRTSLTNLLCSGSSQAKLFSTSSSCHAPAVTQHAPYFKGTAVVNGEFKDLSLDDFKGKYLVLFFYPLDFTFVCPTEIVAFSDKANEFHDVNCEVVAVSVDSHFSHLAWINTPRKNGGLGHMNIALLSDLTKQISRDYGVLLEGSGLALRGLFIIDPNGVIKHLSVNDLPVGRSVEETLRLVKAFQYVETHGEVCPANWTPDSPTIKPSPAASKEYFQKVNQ"}, "[11]": {"target": "pnma5_human PNMA5 (UniProt Q96PV4)", "sequence (Q96PV4 whole entry)": "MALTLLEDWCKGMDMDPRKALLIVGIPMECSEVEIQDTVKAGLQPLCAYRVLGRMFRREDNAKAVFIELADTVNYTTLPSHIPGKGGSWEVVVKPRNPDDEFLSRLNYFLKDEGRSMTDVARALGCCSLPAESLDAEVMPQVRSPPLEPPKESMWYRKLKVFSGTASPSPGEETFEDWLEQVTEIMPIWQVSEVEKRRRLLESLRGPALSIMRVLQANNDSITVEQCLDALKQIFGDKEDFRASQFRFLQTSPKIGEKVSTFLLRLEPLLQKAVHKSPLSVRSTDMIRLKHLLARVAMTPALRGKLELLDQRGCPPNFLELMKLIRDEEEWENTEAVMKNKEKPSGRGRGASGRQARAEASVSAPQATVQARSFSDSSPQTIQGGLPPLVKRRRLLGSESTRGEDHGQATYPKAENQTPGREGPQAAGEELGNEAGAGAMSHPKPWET"}}}
{"substance": "Golgi reassembly-stacking protein 2 (Homo sapiens) (from UniProt Q9H8Y8) L320R", "values": [{"measurement": "effect of a mutation on the interaction", "setting": "[1]", "value": "disrupting interaction strength"}, {"measurement": "effect of a mutation on the interaction", "setting": "[2]", "value": "with no effect"}, {"measurement": "effect of a mutation on the interaction", "setting": "[3]", "value": "with no effect"}, {"measurement": "effect of a mutation on the interaction", "setting": "[4]", "value": "disrupting interaction strength"}, {"measurement": "effect of a mutation on the interaction", "setting": "[5]", "value": "with no effect"}, {"measurement": "effect of a mutation on the interaction", "setting": "[6]", "value": "with no effect"}, {"measurement": "effect of a mutation on the interaction", "setting": "[7]", "value": "with no effect"}, {"measurement": "effect of a mutation on the interaction", "setting": "[8]", "value": "with no effect"}, {"measurement": "effect of a mutation on the interaction", "setting": "[9]", "value": "disrupting interaction strength"}, {"measurement": "effect of a mutation on the interaction", "setting": "[10]", "value": "disrupting interaction strength"}, {"measurement": "effect of a mutation on the interaction", "setting": "[11]", "value": "with no effect"}]}
